This series can be described thus: yeast display, Sf9 membrane polyspecificity reagent, FACS + sequencing; frameworks hold sequencing errors. In outline:
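Using colony PCR, genes from sorted yeast display clones were amplified, then sequenced on MiSeq at 2 × 250 and filtered by CDR length. The clones had been stained with 10% biotinylated, detergent-solubilized Sf9 membrane reagent for 1 hour at 4 °C and sorted by FACS into low and high (top ~1%) gates on anti-HA and streptavidin fluorescence. Polyreactivity labels come from the gate of origin.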
Regarding “QVQLVESGGGLVQAGGSLRLSCAASGSIFGANTMGWYRQAPGKERELGAAISKRGGSTYYADSVKGRFTISRDNAKNTVYLQMNSLKPEDTAVYYCNATPRYLRQYVDPNWGYDYWGQGTQVTVSS”, the “polyreactivity (PSR sort gate)” value is “low polyreactivity”.

“QVQLVESGGGLVQAGGSLRLSCAASGSIFGANTMGWYRQAPGKERELVAAISSGGNTYYADSVKGRFTISRDNAKNTVYLQMNSLKPEDTAVYYCAVGAYWYFGFVSYGYDYCGQGTQVTVSS”: the “polyreactivity (PSR sort gate)” value is recorded as “low polyreactivity”.

Consider “QVQLVESGGGLVQAGGSLRLSCAASGSIFGANTMGWYRQAPGKERELVAGITSGARTYYADSVKGRFTISRDNAKNTVYLQMNSLKPEDTAVYYCAAKYAWRRYGYWGQGTQVTVSS”, for which the “polyreactivity (PSR sort gate)” value was “high polyreactivity”.

As for “QVQLVESGGGLVQAGGSLRLSCAASGSIFGANVMGWYRQAPGKERELVAAISFSGGSTFYADSVKGRFTISRDNAKNTVYLQMNSLKPEDTAVYYCAASYGGKGVKYYYWGQGTQVTVSS”, the “polyreactivity (PSR sort gate)” value was “high polyreactivity”.

“QVQLVESGGGLVQAGGSLRLSCAASGSIFGAYAMGWYRQAPGKERELVAAITSGGSTNYADSVKGRFTISRDNAKNTVYLQMNSLKPEDTAVYYCAARRRYAKFRYDYWGQGTQVTVSS”: the “polyreactivity (PSR sort gate)” value was “high polyreactivity”.

As to “QVQLVESGGGLVQAGGSLRLSCAASGSIFGAYAMGWYRQAPGKERELVAAITWRGGSTYYADSVKGRFTISRDNAKNTVYLQMNSLNPEDTAVYYCATDTWGSYYDDDDYWGQGTEVTVSS”, the “polyreactivity (PSR sort gate)” value is reported as “high polyreactivity”.

“QVQLVESGGGLVQAGGSLRLSCAASGSIFGAYAMGWYRQAPGPESELVATITLRDGSTYYADSVKGRFTISRDNAKNTVYLQLNSLKPEDTAVYYCATYYSAINYGSSTTILYDYWGQGTQVSVSS”: the “polyreactivity (PSR sort gate)” value is “low polyreactivity”.

As for “QVQLVESGGGLVQAGGSLRLSCAASGSIFGAYAMRWYRQAPGKERELVAAISYGGGNTYYADSVKGRFTISRDNAKNTVYLQMNSLKPEDTAFYYCNALFPRVSGSTYRYNYWGQGTQVTVSS”, the “polyreactivity (PSR sort gate)” value is “high polyreactivity”.

Turning to “QVQLVESGGGLVQAGGSLRLSCAASGSIFGDYAMGWYRQAPGKERELVADISSGGSTTYADSVTGRFTISRDNAKNTVYLQMNSLKPEDTAVYYCAVDGGDFSSYGNWGQGTQVTVSS”, the “polyreactivity (PSR sort gate)” value is listed as “low polyreactivity”.

Regarding “QVQLVESGGGLVQAGGSLRLSCAASGSIFGEYAMGWYRQAPGKERELVATIRQSGDSTYYAVSVKGRFTISRDTAKNTVYLQMNSLKPEDTAVYYCAADLWLYDYYSEYDYWGPGTQVTVSS”, the “polyreactivity (PSR sort gate)” value is “low polyreactivity”.

Take “QVQLVESGGGLVQAGGSLRLSCAASGSIFGEYAMGWYRQAPGKERELVATISWSAGSTYYADSVKGRFTISRDYAKNTVYLQMNSLKPEDTAVYYCAAAYDGYYLSTFDSWGQGTQVTVSS”: the “polyreactivity (PSR sort gate)” value is recorded as “low polyreactivity”.

Turning to “QVQLVESGGGLVQAGGSLRLSCAASGSIFGFNAMGWYRQAPGKERELVAGITSGDRTNYADSVKGRFTISRDNAKNTVYLQMNSLKPEDTAVYYCAARKYVFFKMYYWGQGTQVTVSS”, the “polyreactivity (PSR sort gate)” value is reported as “low polyreactivity”.

Take “QVQLVESGGGLVQAGGSLRLSCAASGSIFGFYAMGWDRQAPGKERELVAAIRWRDGRTYYADSVKGRFTISRDNAKNTVYLQMNSLKPEDTAVYYCAAGTPWAYDYWGQGTQVTVSS”: the “polyreactivity (PSR sort gate)” value was “high polyreactivity”.

As to “QVQLVESGGGLVQAGGSLRLSCAASGSIFGFYAMGWYRQAPGKERELVASISSSGDSTYYADSVKGRFTISRDNAKNTVYLQMNSLKPEDTAVYYCAAVVYDIYGYEFDYWGQGTQVTVSS”, the “polyreactivity (PSR sort gate)” value is on record as “low polyreactivity”.

Regarding “QVQLVESGGGLVQAGGSLRLSCAASGSIFGFYGMGWYRQAPGKERELVAAISSRGGNTYYADSVKGRFTISRDNAKNTVYLQMNSLKPEDTAVYYCNAYRYVRHYSFDYWGQGTQVTVSS”, the “polyreactivity (PSR sort gate)” value is given as “high polyreactivity”.

On to “QVQLVESGGGLVQAGGSLRLSCAASGSIFGFYVMGWYRQAPGKERELVAAISRGGTRTYYAVSVKGRFTISRDNAKNTVYLKMNSLKPEDTAVYYCAKYEGGSCTGPRSDYWGQGTQVTVSS”, for which the “polyreactivity (PSR sort gate)” value is given as “high polyreactivity”.

On to “QVQLVESGGGLVQAGGSLRLSCAASGSIFGGNAMGWYRQAPGKERELVAAITSRGGSTYYADSVKGRFTISRDNAKNTVYLQMNSLKPEDTAVYYCNALSSGVYLYDYWGQGTQVTVSS”, for which the “polyreactivity (PSR sort gate)” value is “high polyreactivity”.

For the sequence “QVQLVESGGGLVQAGGSLRLSCAASGSIFGGYAMGWYRQAPGKERELVAAISGSGGSTYYADSVKGRFTISRDNAKNTVYLQMNSLKPEDTAVYYCAADSNKYGYEYDYWGQGTQVTVSS”, the “polyreactivity (PSR sort gate)” value is on record as “low polyreactivity”.

As for “QVQLVESGGGLVQAGGSLRLSCAASGSIFGGYAMGWYRQAPGKERELVAAISRSGASTYYADSVKGRFTISRDNAKNTVYLQMNSLKPVDTAVYYCAAYALRGVRYPYRVDFYYWGQGTQVTVSS”, the “polyreactivity (PSR sort gate)” value is recorded as “high polyreactivity”.

As to “QVQLVESGGGLVQAGGSLRLSCAASGSIFGGYAMGWYRQAPGKERELVAAISWSSSSTYYADSVKGRFTISRDNAKNTVFLQMISLKPEDTAVYYCATGIYPQTSDYVYWGQGTQVTVSS”, the “polyreactivity (PSR sort gate)” value is reported as “low polyreactivity”.

With “QVQLVESGGGLVQAGGSLRLSCAASGSIFGGYDMGWYRQAPGTERELVAAITRDGDTNYADSVKGRFTISRDNAKNTVYLQMNSLKPEDTAVYYCAADRWLYSWFFNYDQGDYWGQGTQVTVSS”, the “polyreactivity (PSR sort gate)” value is “low polyreactivity”.

For the sequence “QVQLVESGGGLVQAGGSLRLSCAASGSIFGGYGMGWYRQAPGTERELVAAITSGSSTYYADSVKGRFTISRDNAKNTVYLQMNSLKPEDTAVYYCAARPYPHSAYEGDYWGRGTQVTVSS”, the “polyreactivity (PSR sort gate)” value was “low polyreactivity”.

On to “QVQLVESGGGLVQAGGSLRLSCAASGSIFGGYTMGWYRQAPGKERELVAAISRRGGNTYYADSVKGRFTISRDNAKNTVYLQMKSLKPEDTAVYYCAVRWPSARIPVKLDYWGQGTQVTVSS”, for which the “polyreactivity (PSR sort gate)” value is listed as “high polyreactivity”.

With “QVQLVESGGGLVQAGGSLRLSCAASGSIFGHYAMGWYRQATGKERELVATISRRGGSTYYADSVKVRFTISRDNAKNTVYLQMNSLKPEDTAVYYCAADSKGSLYGYWGQGTQVTVSS”, the “polyreactivity (PSR sort gate)” value is “high polyreactivity”.

For the sequence “QVQLVESGGGLVQAGGSLRLSCAASGSIFGINAMGWYRQAPGKERELVAAITWSGGSTFYADSVKGRFTISRDNAKNTVYLQMNSLKPEDTAVYYCAASYSRWYWLYTSDYWGQGTQVTVSS”, the “polyreactivity (PSR sort gate)” value is given as “high polyreactivity”.

As to “QVQLVESGGGLVQAGGSLRLSCAASGSIFGIYAMGWYRQAPGKERELVAAISRSGGRTYYADSVKGRFTISRDNAKNTVYLQMNSLKPEDTAVYYCAARPPGGYLYDYWGQGTQVTVSS”, the “polyreactivity (PSR sort gate)” value is recorded as “high polyreactivity”.

For “QVQLVESGGGLVQAGGSLRLSCAASGSIFGIYAMGWYRQAPGKERELVATITGRGGSTYYADSVKGRFTISRDNAKNTVYLQMNSLKPEDTAVYYCNAGGRSARYFWGGYWGQGTQVTVSS”, the “polyreactivity (PSR sort gate)” value is on record as “high polyreactivity”.

“QVQLVESGGGLVQAGGSLRLSCAASGSIFGIYARGWYRQAPGKEREFVATITLGGGNTYYADSVKGRFTISRDYAKNTVYLQMNSLKPEDTAVYYCAARYFGLKRYDDYWGQGTQVTVSS”: the “polyreactivity (PSR sort gate)” value is “high polyreactivity”.

For the sequence “QVQLVESGGGLVQAGGSLRLSCAASGSIFGKNAMGWYRQAPGKERELVAAITWSGGSTYYADSVKGRFTISRDNAKNTVYLQMNSLKPEDTAVYYCNAVRVRVTSHRIRQLDYGYWGQGTQVTVSS”, the “polyreactivity (PSR sort gate)” value was “low polyreactivity”.

Turning to “QVQLVESGGGLVQAGGSLRLSCAASGSIFGKNAMGWYRQAPGKERELVASITWDGSSTYYADSVKGRFTISRDNAKNTVYLQMNSLKPEDTAVYYCNADYHVQYEYYPYDYWGQGTQVTVSS”, the “polyreactivity (PSR sort gate)” value was “low polyreactivity”.

“QVQLVESGGGLVQAGGSLRLSCAASGSIFGKYTMGWYRQAPGKERELVAAITSGGSTNYADSVKGRFTISRDNAKNSVYLQMNSLKPEDTSVYYCAAPGTWIPSSTECGDGYDYWGQGTQVTVSS”: the “polyreactivity (PSR sort gate)” value is on record as “low polyreactivity”.

With “QVQLVESGGGLVQAGGSLRLSCAASGSIFGLNAMGWYRQAPGKERELVAAISVSGTRTYYADSVKGRFTISRDNAKNTGYLQMNSLKPEDTAVYYCAAYSYSSSFGYRYDYWGQGTQVTVSS”, the “polyreactivity (PSR sort gate)” value was “high polyreactivity”.

Turning to “QVQLVESGGGLVQAGGSLRLSCAASGSIFGLYAMGWYRPAPGKERELVAAISRTGGSTYYADSVKGRFTLSRDNAKNTVYFQMHSLKPEETAVYYCAAKYQYTQYDYWGQGTQVTVSS”, the “polyreactivity (PSR sort gate)” value is on record as “high polyreactivity”.

As to “QVQLVESGGGLVQAGGSLRLSCAASGSIFGLYAMGWYRQAPGKERELVAAISGSGSRTYYADSVKGRFTISRDNAKNTVYLQMNSLKPEDTAVYYCAADRYWYGVHASIYYYWGQGTQVTVSS”, the “polyreactivity (PSR sort gate)” value is recorded as “high polyreactivity”.

Take “QVQLVESGGGLVQAGGSLRLSCAASGSIFGLYGMGWYRPAAGKERELLAAITGRGGSTYYADSVKGRFTISRDNAKITVYLQMNSLKPEDTAVYYCAALRYTFAGRFDYWGQGTQVNVSS”: the “polyreactivity (PSR sort gate)” value is given as “high polyreactivity”.

In the case of “QVQLVESGGGLVQAGGSLRLSCAASGSIFGLYTMGWYRQAPGKERELVAAIDSGDSTNYADSVKGRFTISRDNEKNTVYLQMNSLKQEDTAVYYCNALGEYPYYSSFWYESWGQGTQVTVSS”, the “polyreactivity (PSR sort gate)” value was “low polyreactivity”.

On to “QVQLVESGGGLVQAGGSLRLSCAASGSIFGLYTMGWYRQAPGKERELVAAISGGGGSTYYADSVKGRFTISRDNAKNTVYLQMNSLKPEDTAVYYCAADLELSEWYDYWGQGTQVTVSS”, for which the “polyreactivity (PSR sort gate)” value was “low polyreactivity”.

Consider “QVQLVESGGGLVQAGGSLRLSCAASGSIFGNNAMGWYRQAPGKERELVAAISSGGSTNYADSVKGRFTISRDNAKNTVYLQMNSLKPEDTAVYYCATYYFYPSWYLLYGEYNYWGQGTQVTVSS”, for which the “polyreactivity (PSR sort gate)” value is on record as “low polyreactivity”.

With “QVQLVESGGGLVQAGGSLRLSCAASGSIFGNNAMGWYRQAPGKERELVAAITSSGGSTYYADSVKGRFTISRDNAKNTVYLQMNSLKPEDTAVYYCATEWSGYTYWFYEWEYGYWGQGTQVTVSS”, the “polyreactivity (PSR sort gate)” value is listed as “high polyreactivity”.

Consider “QVQLVESGGGLVQAGGSLRLSCAASGSIFGNNAMGWYRQAPGKERELVAGINYSGGRTYYADSVKGRFTISRDNAKNTVYLQMNSLKPEDTAVYYCAADGHRQVGWWRFEYGYWGQGTQVTVSS”, for which the “polyreactivity (PSR sort gate)” value is on record as “low polyreactivity”.

Values taken from the nanobody polyreactivity screen of Harvey et al. (2022).
